Assay results taken from US9969998B2, “Compositions of adenosine deaminase-2 (ADA2), variants thereof and methods of using same” (Halozyme, Inc., priority 2014, dated 2018).
Numbering of substitutions follows the chain as printed. In names and notes the source's numbering stands.

B1: K455D: ADA2 variant SEQ ID NO:26 (protein)
chain: IDETRAHLLLKEKMMRLGGRLVLNTKEELANERLMTLKIAEMKEAMRTLIFPPSMHFFQAKHLIERSQVFNILRMMPKGAALHLHDIGIVTMDWLVRNVTYRPHCHICFTPRGIMQFRFAHPTPRPSEKCSKWILLEDYRKRVQNVTEFDDSLLRNFTLVTQHPEVIYTNQNVVWSKFETIFFTISGLIHYAPVFRDYVFRSMQEFYEDNVLYMEIRARLLPVYELSGEHHDEEWSVKTYQEVAQKFVETHPEFIGIKIIYSDHRSKDVAVIAESIRMAMGLRIKFPTVVAGFDLVGHEDTGHSLHDYKEALMIPAKDGVKLPYFFHAGETDWQGTSIDRNILDALMLNTTRIGHGFALSKHPAVRTYSWKKDIPIEVCPISNQVLKLVSDLRNHPVATLMATGHPMVISSDDPAMFGAKGLSYDFYEVFMGIGGMKADLRTLKQLAMNSIDYSTLLESEKNTFMEIWKKRWDKFIADVATK
modifications: human ADA2 K452D, mature numbering
B2: K16D: ADA2 variant SEQ ID NO:17 (protein)
chain: B1 chain with K13D, D452K
modifications: human ADA2 K13D, mature numbering
B3: K14D: ADA2 variant SEQ ID NO:14 (protein)
chain: B1 chain with K11D, D452K
modifications: human ADA2 K11D, mature numbering
B4: K16A: ADA2 variant SEQ ID NO:16 (protein)
chain: B1 chain with K13A, D452K
modifications: human ADA2 K13A, mature numbering
B5: K14A: ADA2 variant SEQ ID NO:13 (protein)
chain: B1 chain with K11A, D452K
modifications: human ADA2 K11A, mature numbering
B6: K16E: ADA2 variant SEQ ID NO:18 (protein)
chain: B1 chain with K13E, D452K
modifications: human ADA2 K13E, mature numbering
B7: K455A: ADA2 variant SEQ ID NO:25 (protein)
chain: B1 chain with D452A
modifications: human ADA2 K452A, mature numbering
B8: R222K: ADA2 variant SEQ ID NO:38 (protein)
chain: B1 chain with R219K, D452K
modifications: human ADA2 R219K, mature numbering
B9: L224A: ADA2 variant SEQ ID NO:42 (protein)
chain: B1 chain with L221A, D452K
modifications: human ADA2 L221A, mature numbering
B10: H267G: ADA2 variant SEQ ID NO:37 (protein)
chain: B1 chain with H264G, D452K
modifications: human ADA2 H264G, mature numbering
B11: R222A: ADA2 variant SEQ ID NO:41 (protein)
chain: B1 chain with R219A, D452K
modifications: human ADA2 R219A, mature numbering
B12: L224G: ADA2 variant SEQ ID NO:44 (protein)
chain: B1 chain with L221G, D452K
modifications: human ADA2 L221G, mature numbering
B13: L224V: ADA2 variant SEQ ID NO:43 (protein)
chain: B1 chain with L221V, D452K
modifications: human ADA2 L221V, mature numbering
B14: H267N: ADA2 variant SEQ ID NO:36 (protein)
chain: B1 chain with H264N, D452K
modifications: human ADA2 H264N, mature numbering
B15: E182D: ADA2 variant SEQ ID NO:45 (protein)
chain: B1 chain with E179D, D452K
modifications: human ADA2 E179D, mature numbering
B16: R222N: ADA2 variant SEQ ID NO:40 (protein)
chain: B1 chain with R219N, D452K
modifications: human ADA2 R219N, mature numbering

Assay: Adenosine deaminase (ADA) enzymatic activity assay kit
Assay type: biochemical
Settings: not given
Procedure: Adenosine deaminase activity was determined using an adenosine deaminase (ADA) assay kit (Genway, San Diego, Calif.; Cat. No. BQ014EALD) with minor modifications. The ADA assay is based on the enzymatic deamination of adenosine to inosine, which is converted to hypoxanthine by purine nucleoside phosphorylase (PNP). Hypoxanthine is then converted to uric acid and hydrogen peroxide by xanthine oxidase (XOD). Hydrogen peroxide is further reacted with N-Ethyl-N-(2-hydroxy-3-sulfopropyl)-3-methylaniline (EHSPT) and 4-aminoantipyrine (4-AA) in the presence of peroxidase (POD) to generate quinone dye, which is monitored in a kinetic manner.
Briefly, 5 μL samples in duplicates (at appropriate dilutions to measure steady-state, non-saturating enzyme activity) were added to 120 μL R1 reagent (provided by the manufacturer; 50 mM Tris HCL, pH 8.0, 2 mM 4-AA, 0.1 U/mL PNP, 0.2 U/mL XOD, 0.6 U/mL peroxidase) in a 96 well plate, according to manufacturer's instructions. The mixtures were incubated at 37° C. for approximately 5 min and 60 μL of R2 reagent (provided by the manufacturer; 50 mM Tris HCl, pH 4.0, 10 mM Adenosine, 2 mM EHSPT) was added to the mixtures. Then, change in absorbance (AA) at 556 nm over time at 37° C. was measured. One unit of ADA is the amount of ADA that generates one μmole of inosine from adenosine per minute at 37° C. Adenosine deaminase activity in mU/mL was calculated using the following formula: 1 mU/mL=(ΔA/min×Tv)/(Sv×ϵ×1) • where Tv=total volume (185 μL), Sv=sample volume (5 μL), ϵ=32.2×10^−3 μM^−1 cm^−1, 1=0.5 cm.
Adenosine deaminase activity of WT rHuADA2 and variants tested above were determined using the adenosine deaminase activity (ADA) assay described in Example 4. Activity was assessed on purified rHuADA2 WT and variants that were diluted to 5 μg/mL, and then serially diluted 2 fold to generate 4 measurements.
Adenosine deaminase activity of PEGylated rHuADA2 and variants was assessed using the method described in Example 4, and compared to the activity of the corresponding non-PEGylated form.
Selected candidate variants described in Table 8 above, containing an amino acid substitution in a residue that play a role in enzymatic activity, were assessed for their adenosine deaminase activity using the method described in Example 4. To perform the experiments, purified WT rHuADA2 and tested variants were prepared at 5 μg/mL concentration to normalize the amount of protein in each experiment.

Molecule | enzymatic activity relative to WT rHuADA2
B1 | improved enzymatic activity

Same assay, conditions: protein diluted to 5 μg/mL, serially diluted 2 fold (Table 21)

Molecule | adenosine deaminase activity mU/mL [mU/mL] | ΔA/min, adenosine deaminase activity
B1 | 97.9 | 42.6
B2 | 67.3 | 29.3
B3 | 18.7 | 8.1
B4 | 28 | 12.2
B5 | 11.4 | 4.9
B6 | 16.3 | 7.1
B7 | 14 | 6.1

Same assay, conditions: purified protein at 5 μg/mL

Molecule | Adenosine deaminase activity mU/ml [mU/ml] | Adenosine deaminase activity ΔA/min
B8 | 118.5 | 51.5 ΔA/min
B9 | 100.1 | 43.5 ΔA/min
B10 | 119.1 | 51.8 ΔA/min
B11 | 31.2 | 13.6 ΔA/min
B12 | 88.2 | 38.3 ΔA/min
B13 | 96.1 | 41.8 ΔA/min
B14 | 50.4 | 21.9 ΔA/min
B15 | 18.1 | 7.8 ΔA/min
B16 | 81.5 | 35.4 ΔA/min

Same assay, conditions: purified protein at 5 μg/mL; compared to WT-ADA2

Molecule | % of WT activity [%]
B8 | 152
B9 | 128
B10 | 153
B11 | 40
B12 | 113
B13 | 123
B14 | 65
B15 | 23
B16 | 104

Same assay, conditions: relative to rHuADA2 WT (Table 21)

Molecule | % activity vs. WT [%]
B1 | 125.5
B2 | 86.3
B3 | 24
B4 | 35.9
B5 | 14.6
B6 | 20.9
B7 | 18
